In US20240417428A1 (ZHEJIANG UNIVERSITY, published 2024):
Bridges are numbered along the chain shown (N, C = ends). Where no end group is shown, it is not given here.

T1: TRPV2
T1 sequence (Q9Y5S1 whole entry, species assumed, looked up): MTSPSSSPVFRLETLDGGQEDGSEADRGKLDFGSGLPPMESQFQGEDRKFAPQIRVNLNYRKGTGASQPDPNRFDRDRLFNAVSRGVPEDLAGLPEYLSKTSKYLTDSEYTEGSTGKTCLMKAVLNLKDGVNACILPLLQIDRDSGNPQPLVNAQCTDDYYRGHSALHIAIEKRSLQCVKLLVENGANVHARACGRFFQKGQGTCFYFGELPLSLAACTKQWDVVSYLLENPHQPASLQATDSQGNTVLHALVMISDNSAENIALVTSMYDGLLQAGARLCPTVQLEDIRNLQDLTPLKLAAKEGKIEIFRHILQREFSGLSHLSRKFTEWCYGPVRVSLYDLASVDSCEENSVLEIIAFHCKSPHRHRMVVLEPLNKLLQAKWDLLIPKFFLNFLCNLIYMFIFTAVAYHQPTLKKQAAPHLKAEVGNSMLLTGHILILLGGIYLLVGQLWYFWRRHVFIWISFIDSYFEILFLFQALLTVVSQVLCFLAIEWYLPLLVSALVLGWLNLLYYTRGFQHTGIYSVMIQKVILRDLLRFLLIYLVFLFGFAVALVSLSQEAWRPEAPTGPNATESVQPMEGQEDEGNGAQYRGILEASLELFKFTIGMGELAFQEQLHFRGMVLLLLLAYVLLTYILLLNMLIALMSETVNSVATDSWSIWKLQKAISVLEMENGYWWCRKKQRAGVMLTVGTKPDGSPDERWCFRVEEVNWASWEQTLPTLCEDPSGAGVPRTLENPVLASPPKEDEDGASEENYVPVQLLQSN


Assays:
Experiment in all cases: cell-based or functional assay
mouse TRPM8 channel [1] = target: T2, mouse TRPM8 channel (mouse, UniProt Q8R4D5 1-1104)
T2 sequence (Q8R4D5 whole entry): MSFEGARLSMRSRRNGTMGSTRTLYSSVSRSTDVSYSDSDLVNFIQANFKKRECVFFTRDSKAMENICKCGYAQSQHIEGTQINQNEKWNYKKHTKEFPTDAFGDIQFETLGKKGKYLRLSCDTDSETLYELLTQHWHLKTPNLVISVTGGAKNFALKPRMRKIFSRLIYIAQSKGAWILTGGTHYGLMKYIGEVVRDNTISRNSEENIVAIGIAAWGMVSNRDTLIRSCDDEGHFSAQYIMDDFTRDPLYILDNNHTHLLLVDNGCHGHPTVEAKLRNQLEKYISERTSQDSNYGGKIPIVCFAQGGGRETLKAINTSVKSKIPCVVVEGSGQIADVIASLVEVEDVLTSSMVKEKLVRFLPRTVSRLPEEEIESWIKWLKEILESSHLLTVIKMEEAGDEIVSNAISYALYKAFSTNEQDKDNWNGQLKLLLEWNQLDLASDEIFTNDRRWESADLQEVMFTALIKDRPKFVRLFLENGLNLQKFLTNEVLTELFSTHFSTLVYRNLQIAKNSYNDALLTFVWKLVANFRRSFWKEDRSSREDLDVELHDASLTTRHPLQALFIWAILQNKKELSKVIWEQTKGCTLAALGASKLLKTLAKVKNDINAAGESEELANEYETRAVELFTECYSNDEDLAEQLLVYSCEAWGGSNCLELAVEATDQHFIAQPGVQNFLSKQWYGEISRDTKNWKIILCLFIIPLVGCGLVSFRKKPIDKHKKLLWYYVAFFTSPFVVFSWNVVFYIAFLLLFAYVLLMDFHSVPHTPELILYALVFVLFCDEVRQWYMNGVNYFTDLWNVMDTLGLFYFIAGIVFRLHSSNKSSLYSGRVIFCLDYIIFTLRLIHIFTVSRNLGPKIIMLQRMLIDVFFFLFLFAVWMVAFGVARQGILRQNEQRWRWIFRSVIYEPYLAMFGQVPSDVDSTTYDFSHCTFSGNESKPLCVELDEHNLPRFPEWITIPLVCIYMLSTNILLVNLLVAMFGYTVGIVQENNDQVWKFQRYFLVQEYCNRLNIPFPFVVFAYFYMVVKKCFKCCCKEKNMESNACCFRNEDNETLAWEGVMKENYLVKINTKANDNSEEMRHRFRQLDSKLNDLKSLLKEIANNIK

mouse TRPM8 channel [2] = target: T2, mouse TRPM8 channel; remark: listed apart in the source
TRPA1 = target: TRPA1
Sequence of TRPA1 (O75762 whole entry): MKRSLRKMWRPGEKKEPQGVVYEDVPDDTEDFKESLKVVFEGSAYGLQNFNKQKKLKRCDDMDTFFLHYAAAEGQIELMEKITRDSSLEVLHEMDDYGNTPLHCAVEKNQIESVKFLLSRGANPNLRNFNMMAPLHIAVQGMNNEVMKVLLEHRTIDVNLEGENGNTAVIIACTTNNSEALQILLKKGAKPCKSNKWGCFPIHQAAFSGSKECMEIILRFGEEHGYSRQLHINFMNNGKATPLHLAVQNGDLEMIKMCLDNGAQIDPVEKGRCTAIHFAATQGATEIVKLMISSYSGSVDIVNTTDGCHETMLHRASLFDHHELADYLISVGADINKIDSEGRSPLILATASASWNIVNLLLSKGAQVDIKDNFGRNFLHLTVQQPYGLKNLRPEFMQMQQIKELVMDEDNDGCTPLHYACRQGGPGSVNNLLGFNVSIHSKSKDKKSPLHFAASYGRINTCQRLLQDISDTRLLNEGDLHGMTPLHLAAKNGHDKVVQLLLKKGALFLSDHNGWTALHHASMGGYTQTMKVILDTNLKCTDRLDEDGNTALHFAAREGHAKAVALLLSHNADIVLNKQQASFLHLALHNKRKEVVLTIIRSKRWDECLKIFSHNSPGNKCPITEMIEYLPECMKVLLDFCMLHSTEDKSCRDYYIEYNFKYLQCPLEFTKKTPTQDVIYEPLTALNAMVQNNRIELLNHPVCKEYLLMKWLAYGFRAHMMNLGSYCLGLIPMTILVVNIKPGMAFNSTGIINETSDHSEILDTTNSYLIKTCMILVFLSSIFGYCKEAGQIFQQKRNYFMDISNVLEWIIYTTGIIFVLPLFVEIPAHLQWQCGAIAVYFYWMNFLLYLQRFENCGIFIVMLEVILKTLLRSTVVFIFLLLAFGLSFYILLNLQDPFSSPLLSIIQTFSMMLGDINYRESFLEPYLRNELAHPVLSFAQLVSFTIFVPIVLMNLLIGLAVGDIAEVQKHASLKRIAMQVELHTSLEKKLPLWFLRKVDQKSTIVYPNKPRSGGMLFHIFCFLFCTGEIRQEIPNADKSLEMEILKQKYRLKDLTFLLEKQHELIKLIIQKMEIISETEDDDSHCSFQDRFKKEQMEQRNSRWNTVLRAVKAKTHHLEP

Nav1.7 = target: Nav1.7
TRPV3 = target: TRPV3
Sequence of TRPV3 (Q8NET8 whole entry): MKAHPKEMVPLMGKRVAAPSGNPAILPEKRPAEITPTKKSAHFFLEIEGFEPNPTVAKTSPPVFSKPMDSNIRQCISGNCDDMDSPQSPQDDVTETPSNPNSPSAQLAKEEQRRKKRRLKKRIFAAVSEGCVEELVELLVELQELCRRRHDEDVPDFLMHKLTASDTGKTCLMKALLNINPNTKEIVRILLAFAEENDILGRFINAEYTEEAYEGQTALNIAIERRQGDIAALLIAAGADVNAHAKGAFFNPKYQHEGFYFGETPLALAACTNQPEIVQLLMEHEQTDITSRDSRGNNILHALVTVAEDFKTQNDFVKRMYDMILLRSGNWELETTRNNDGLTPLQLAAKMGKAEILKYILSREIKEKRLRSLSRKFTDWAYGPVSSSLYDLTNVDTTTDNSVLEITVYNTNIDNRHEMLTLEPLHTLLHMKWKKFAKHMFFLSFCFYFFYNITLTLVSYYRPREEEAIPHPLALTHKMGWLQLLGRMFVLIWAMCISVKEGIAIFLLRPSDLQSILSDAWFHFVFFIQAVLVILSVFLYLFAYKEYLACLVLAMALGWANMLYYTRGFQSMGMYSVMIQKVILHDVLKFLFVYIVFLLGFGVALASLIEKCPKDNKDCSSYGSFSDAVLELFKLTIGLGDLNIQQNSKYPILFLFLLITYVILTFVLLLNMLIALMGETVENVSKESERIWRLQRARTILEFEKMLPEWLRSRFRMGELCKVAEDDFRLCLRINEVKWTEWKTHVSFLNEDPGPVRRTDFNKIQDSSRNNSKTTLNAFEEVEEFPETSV

TRPM2 = target: TRPM2
TRPV2 [3] = target: T1, TRPV2
TRPV1 = target: TRPV1
Nav1.5 = target: Nav1.5
TRPM4-K1045A = target: TRPM4-K1045A
TRPV2 [4] = target: T1, TRPV2; remark: listed apart in the source

| Binder | half-inhibitory concentration (IC50), electrophysiology (mouse TRPM8 channel [1]) | IC50, inhibition of menthol-activated TRPM8 current, whole-cell electrophysiology (mouse TRPM8 channel [2]) | IC50, inhibition of channel current, electrophysiology (TRPA1) | IC50, inhibition of sodium channel current, electrophysiology (Nav1.7) | IC50, inhibition of ligand-activated channel current, electrophysiology (TRPV3) | IC50, inhibition of ligand-activated channel current, electrophysiology (TRPM2) | IC50, inhibition of ligand-activated channel current, electrophysiology (TRPV2 [3]) | IC50, inhibition of ligand-activated channel current, electrophysiology (TRPV1) | IC50, inhibition of sodium channel current, electrophysiology (Nav1.5) | IC50, inhibition of ligand-activated channel current, electrophysiology (TRPM4-K1045A) | half-inhibitory concentration (IC50), electrophysiology (TRPV2 [4]) |
| --- | --- | --- | --- | --- | --- | --- | --- | --- | --- | --- | --- |
| CRNSRAAHDSQKC (disulfide 1-13) [polypeptide DeC-1.1] | 133 µM | – | – | – | – | – | – | – | – | – | – |
| CRRDRARHYRQRC (disulfide 1-13) [polypeptide DeC-1.2] | – | 4.5 nM | > 100 µM | > 100 µM | > 100 µM | > 100 µM | > 5 µM | > 100 µM | > 100 µM | > 10 µM | ~10 µM |
